Source: patent US20240075137A1 (COMPUGEN, published 2024)
Where a chain is given by its changes, count along the chain named.

T1: human PVRIG on cells (human, UniProt Q6DKI7 1-326)
T1 construct: whole, on cells; over-expressed on HEK cells or endogenous on Jurkat and CD8 T cells; also called hPVRIG; HEK hPVRIG cells
T1 sequence (looked up): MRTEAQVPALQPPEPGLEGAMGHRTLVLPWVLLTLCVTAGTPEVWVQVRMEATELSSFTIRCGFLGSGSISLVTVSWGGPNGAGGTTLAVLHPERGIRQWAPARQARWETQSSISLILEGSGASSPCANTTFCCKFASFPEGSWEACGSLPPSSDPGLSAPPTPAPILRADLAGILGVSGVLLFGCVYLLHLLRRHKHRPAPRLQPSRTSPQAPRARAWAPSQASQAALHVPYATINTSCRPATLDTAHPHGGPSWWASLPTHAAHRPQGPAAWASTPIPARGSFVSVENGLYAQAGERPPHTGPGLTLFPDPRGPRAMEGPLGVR

T2: cynomolgus PVRIG on cells (cynomolgus, UniProt A0A2K5WVV8 41-322)
T2 construct: whole, on cells; also called cPVRIG; expi cPVRIG cells
T2 sequence: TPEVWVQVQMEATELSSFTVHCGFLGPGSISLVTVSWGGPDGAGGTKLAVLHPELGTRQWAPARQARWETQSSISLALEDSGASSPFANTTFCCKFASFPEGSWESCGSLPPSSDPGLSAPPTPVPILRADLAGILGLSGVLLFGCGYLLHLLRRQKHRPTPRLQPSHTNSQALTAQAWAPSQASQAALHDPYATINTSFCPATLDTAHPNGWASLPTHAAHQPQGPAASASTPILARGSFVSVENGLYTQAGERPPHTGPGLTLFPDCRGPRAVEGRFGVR

T3: PVRIG (FACS-based competition assay of FIGS. 7 and 15) (Homo sapiens, UniProt Q6DKI7)
T3 construct: made because the format of the assay is only described in U.S. Ser. No. 15/048,967; also called human PVRIG
T3 sequence (receptor, looked up): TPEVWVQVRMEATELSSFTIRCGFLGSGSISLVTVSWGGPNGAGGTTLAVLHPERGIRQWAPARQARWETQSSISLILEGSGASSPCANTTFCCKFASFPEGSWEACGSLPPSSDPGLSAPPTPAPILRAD

B1: CHA.7.545 (antibody, V domains shown)
VH: QIQLVQSGPDLKKPGETVKISCKASGYTFTTYGMSWVKQAPGRGLKWMGWINTYSGVSTFPDDFKGRFAFSLETSASTAYLQINNLKNEDSATYFCARLGMGSTTGAGYFDVWGTGTTVTVSS
VL: DIVLTQSPAIMSASPGEKVTMTCSASSSVSSWYLHWYQQKSGASPKLWIYGTSNLASGVPARFSGSGSGTSYSLTISSVEAEDAATYYCQQYRSDPYTFGSGTKLEIK
B2: CHA.7.546 (antibody, V domains shown)
VH: B1 VH with D10E, R43K, F60Y, P61A, K65E, A76V, S91T, M101R, F110L
VL: B1 VL with T20S, R93H
B3: CHA.7.547 (antibody, V domains shown)
VH: B1 VH
VL: ENVLTQSPAIMSASLGEKVTLSCRASSSVNYMYWYQQKSDASPKLWIYYTSNLAPGVPARFSGSGSGNSYSLTISSVEGEDAATYYCQQFTSSPWTFGGGTKLEIK
B4: CHA.7.543 (antibody, V domains shown)
VH: QVQLKESGPGLVAPSQSLSITCTVSGFSLSGYGIKWVRQPPGKGLEWLGTIWGDGSTDYNSALKSRLSISKDNSKSQVFLKMTSLQTDDTARYYCASDSLGITFGYWGQGTLVTVSA
VL: DIQMTQTTSSLSASLGDRVTISCRASQDISNYLNWYQQKPDGTVKLLIYYTSRLHSGVPSRFSGSGSGTDYSLTISNLEQEDIATYFCQQGNTLPLTFGAGTKLELK

target: T1, human PVRIG on cells; assay: FACS, HEK hPVRIG cells (HEK OE)

Binder	EC50 [nM]
B1	0.76
B2	0.61
B3	14.4
B4	0.52

target: T2, cynomolgus PVRIG on cells; assay: FACS, cyno PBMC, NK cells, 10ug/ml

Binder	gMFIr Cyno NK cells
B4	1.35

target: T2, cynomolgus PVRIG on cells; assay: FACS, cyno PBMC, NK cells, 10ug/ml; remark: another data set of the same source

Binder	gMFIr Cyno NK cells
B4	1.35

target: T2, cynomolgus PVRIG on cells; assay: FACS, cyno PBMC, CD8+ T cells, 10ug/ml

Binder	gMFIr Cyno CD8+ T cells
B4	1.39

target: T2, cynomolgus PVRIG on cells; assay: FACS, cyno PBMC, CD8+ T cells, 10ug/ml; remark: another data set of the same source

Binder	gMFIr Cyno CD8+ T cells
B4	1.39

target: T1, human PVRIG on cells; assay: FACS, human PBMC, CD8+ T cells, 10ug/ml

Binder	gMFIr Human CD8+ T cells
B1	2.82
B2	2.95
B3	1.13
B4	4.33

target: T1, human PVRIG on cells; assay: FACS, human PBMC, CD8+ T cells, 10ug/ml; remark: another data set of the same source

Binder	gMFIr Human CD8+ T cells
B1	2.82
B2	2.95
B3	1.13
B4	4.33

target: T1, human PVRIG on cells; assay: FACS, human PBMC, CD56 int. NK cells, 10ug/ml

Binder	gMFIr Human CD56 int. NK
B1	2.54
B2	2.75
B3	2.21
B4	4.48

target: T1, human PVRIG on cells; assay: FACS, human PBMC, CD56 int. NK cells, 10ug/ml; remark: another data set of the same source

Binder	gMFIr Human CD56 int. NK
B1	2.54
B2	2.75
B3	2.21
B4	4.48

target: T1, human PVRIG on cells; assay: FACS, Jurkat cells, relative to control, 3.3ug/ml

Binder	gMFIr Jurkat
B1	6.53
B2	6.42
B3	1.02
B4	6.73

target: T1, human PVRIG on cells; assay: FACS, HEK hPVRIG over HEK parental cells, 3.3ug/ml

Binder	gMFIr HEK OE/par
B1	44.3
B2	43.1
B3	10.9
B4	49.8

target: T2, cynomolgus PVRIG on cells; assay: FACS, expi cPVRIG over expi parental cells, 3.3ug/ml

Binder	gMFIr Expi cyno OE/par
B1	0.91
B2	0.85
B3	26.6
B4	0.83

target: T2, cynomolgus PVRIG on cells; assay: as above; remark: another data set of the same source

Binder	gMFIr Expi cyno OE/par
B1	0.91
B2	0.85
B3	26.6
B4	0.83

target: T3, PVRIG (FACS-based competition assay of …); assay: FACS-based competition assay of PVRIG blocking; format and competitor not given

Binder	IC50 [nM]
B1	96.1
B2	92
B3	27.9

target: T3, PVRIG (FACS-based competition assay of …); assay: as above; remark: another data set of the same source

Binder	IC50 [nM]
B1	96.1
B2	92
B3	27.9
